Biological target: T1, full length FH (Homo sapiens, UniProt P08603)
T1 construct: Purification of Full-Length Factor H from Human Serum; from tissue; host or cells: human serum
Assay: Binding of full length FH to untreated and N-glycosidase F-treated FMOD
Conditions: p<10-4 for all data points above zero
Method: FMOD was isolated from bovine articular cartilage (Heinghrd et al., (1986) J. Biol. Chem. 261, 13866-13872) and recombinant CRP was obtained from Calbiochem. Deglycosylated FMOD was prepared by treatment with N-glycosiadase F (Roche Applied Science) as previously described (Sjöberg et al. (2005) J. Biol. Chem. 280, 32301-32308).
CRP or FMOD was coated overnight at 4° C. onto microtiter plates (Maxisorp, Nunc) at a concentration of 10 μg/ml in 75 mM sodium carbonate buffer, pH 9.6. Wells treated only with coating buffer or 1% (w/v) BSA (Sigma) in coating buffer (for the assays involving FMOD) were used as negative controls. Between each step the wells were washed extensively with 50 mM Tris-HCl, 150 mM NaCl, 0.1% (v/v) Tween 20, pH 7.5. All wells were blocked with 1% (w/v) BSA (Sigma) in phosphate buffered saline (Invitrogen) for 1 hour at 37° C. […] The amount of bound protein was assessed using a goat polyclonal anti-FH antibody (Quidel, Cat # A312) followed by HRP-labeled anti-goat secondary antibodies (Dako) and the OPD development kit (Dako). Detection of biotinylated protein was performed using a StreptABComplex/HRP-kit from Dako, and in both cases the absorbance at 490 nm was measured to quantify protein binding.

T1 sequence (P08603 19-1231): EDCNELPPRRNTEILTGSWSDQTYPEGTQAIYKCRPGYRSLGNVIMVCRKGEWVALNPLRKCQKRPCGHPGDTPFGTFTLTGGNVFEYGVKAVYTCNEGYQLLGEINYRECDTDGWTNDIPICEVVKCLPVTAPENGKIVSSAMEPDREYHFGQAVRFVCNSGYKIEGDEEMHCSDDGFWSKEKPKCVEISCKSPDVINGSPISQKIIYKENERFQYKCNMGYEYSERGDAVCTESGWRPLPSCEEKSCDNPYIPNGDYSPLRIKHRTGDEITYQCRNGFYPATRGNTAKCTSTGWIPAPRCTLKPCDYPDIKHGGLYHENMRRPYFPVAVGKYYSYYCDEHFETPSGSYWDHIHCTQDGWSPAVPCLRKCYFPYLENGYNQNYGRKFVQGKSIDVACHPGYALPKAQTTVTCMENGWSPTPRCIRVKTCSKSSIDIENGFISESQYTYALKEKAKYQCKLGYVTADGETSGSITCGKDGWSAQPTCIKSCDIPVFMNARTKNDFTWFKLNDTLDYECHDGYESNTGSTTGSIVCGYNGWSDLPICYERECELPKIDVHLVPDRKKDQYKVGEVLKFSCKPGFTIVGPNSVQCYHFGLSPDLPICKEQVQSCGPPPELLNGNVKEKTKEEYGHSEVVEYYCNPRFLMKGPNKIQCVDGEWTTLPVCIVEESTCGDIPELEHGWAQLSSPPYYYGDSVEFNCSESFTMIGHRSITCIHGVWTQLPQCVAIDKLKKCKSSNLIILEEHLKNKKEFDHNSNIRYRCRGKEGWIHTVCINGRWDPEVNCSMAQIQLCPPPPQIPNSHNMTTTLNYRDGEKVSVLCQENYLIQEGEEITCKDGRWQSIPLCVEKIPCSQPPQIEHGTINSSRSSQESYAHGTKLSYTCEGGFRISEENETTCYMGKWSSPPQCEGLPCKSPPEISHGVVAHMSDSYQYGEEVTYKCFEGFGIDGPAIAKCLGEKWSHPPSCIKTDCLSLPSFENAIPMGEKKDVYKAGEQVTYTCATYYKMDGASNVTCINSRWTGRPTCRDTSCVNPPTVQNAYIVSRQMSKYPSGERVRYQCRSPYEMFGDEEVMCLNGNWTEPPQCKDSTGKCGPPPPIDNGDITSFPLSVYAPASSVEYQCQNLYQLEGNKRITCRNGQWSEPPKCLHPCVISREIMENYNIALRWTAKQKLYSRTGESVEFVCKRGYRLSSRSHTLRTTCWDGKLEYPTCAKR

B1: deglycosylated FMOD: fibromodulin from bovine articular cartilage treated with N-glycosidase F to remove N-linked oligosaccharides including keratan sulphate (protein)
chain: QYEEDSHWWFQFLRNQQSTYDDPYDPYPYEPYEPYPYGGEEGPAYAYGSPPQPEPRDCPQECDCPPNFPTAMYCDNRNLKYLPFVPSRMKYVYFQNNQISSIQEGVFDNATGLLWIALHGNQITSDKVGKKVFSKLRHLERLYLDHNNLTRIPSPLPRSLRELHLDHNQISRVPNNALEGLENLTALYLHHNEIQEVGSSMKGLRSLILLDLSYNHLRKVPDGLPSALEQLYLEHNNVFSVPDSYFRGSPKLLYVRLSHNSLTNNGLASNTFNSSSLLELDLSYNQLQKIPPVSTNLENLYLQGNRINEFSISSFCTVVDVMNFSKLQVLRLDGNEIKRSAMPADAPLCLRLASLIEI
- binding of FH compared to keratan sulphate-containing FMOD: significantly better

— patent US7829301B2, “Screening assays for binding antagonists of the AMD-associated variant of factor H (H384)” (The University of Manchester, priority 2006, dated 2010)
